18 molecules from patent US20260250381A1 can be followed below.

For test [1], the target named is T1, human TREM2 (human) (UniProt Q9NZC2).
T1 sequence (looked up): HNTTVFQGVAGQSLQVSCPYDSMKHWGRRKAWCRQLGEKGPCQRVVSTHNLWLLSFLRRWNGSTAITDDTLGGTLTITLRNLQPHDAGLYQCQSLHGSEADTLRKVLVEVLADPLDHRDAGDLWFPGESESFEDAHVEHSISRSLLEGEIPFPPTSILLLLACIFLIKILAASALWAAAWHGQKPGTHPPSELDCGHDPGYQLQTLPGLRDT
Kind of test: 2nd screen, 100 nM Ab.

In test [2] the target is T1, human TREM2 (human). Kind of test: 1st screen, 110 nM Ab.

B1: 6E7 variant V34 (antibody, V domains shown)
VH: EVQLVQSGAEVKKPGESLKISCKGSGYSFTSYWIAWVRQMPGKGLEWMGIIYPGDSDTRYSPSFQGQVTISADKSISTAYLQWSSLKASDTAMYFCARQRTFYYDSSDYFDYWGQGTLVTVSS
VL: DIQMTQSPSSVSASVGDRVTITCRASQGISSWLAWYQQKPGKAPKLLIYAASSLQDGVPSRFSGSGSGTDFTLTISSLQPEDFATYFCQQADSFPRTFGQGTKLEIK
As for B1, the results for the Binding Signal (fold over 6E7 parental antibody) in the test with human TREM2 (human) [1] and in the test with human TREM2 (human) [2] were 1.02 fold and 0.34 fold, respectively.

B2: 6E7 variant V42 (antibody, V domains shown)
VH: EVQLVQSGAEVKKPGESLKISCKGSGYSFTSAWIAWVRQMPGKGLEWMGIIYPGDSDTRYSPSFQGQVTISADKSISTAYLQWSSLKASDTAMYFCARQRTFYYDSSDYFDYWGQGTLVTVSS
VL: DIQMTQSPSSVSASVGDRVTITCRASQGISSWLAWYQQKPGKAPKLLIYAASSLQNGVPSRFSGSGSGTDFTLTISSLQPEDFATYFCQQADSFPRTFGQGTKLEIK
Regarding B2, the Binding Signal (fold over 6E7 parental antibody) was determined as 0.41 fold with human TREM2 (human) [1] and 0.45 fold with human TREM2 (human) [2].

B3: 6E7 variant V55 (antibody, V domains shown)
VH: EVQLVQSGAEVKKPGESLKISCKGSGYSFTSYWIAWVRQMPGKGLEWMGIIYPGDSDTIYSPSHQGQVTISADKSISTAYLQWSSLKASDTAMYFCARQRTFYYDSSDYFDYWGQGTLVTVSS
VL: DIQMTQSPSSVSASVGDRVTITCRASQGISSWLAWYQQKPGKAPKLLIYAASSLQNGVPSRFSGSGSGTDFTLTISSLQPEDFATYFCQQADSFPRTFGQGTKLEIK
In the case of B3, the Binding Signal (fold over 6E7 parental antibody) with human TREM2 (human) [1] turned out to be 0.66 fold; in the test with human TREM2 (human) [2], 0.24 fold.

B4: 6E7 variant V67 (antibody, V domains shown)
VH: EVQLVQSGAEVKKPGESLKISCKGSGYSFTSYWIAWVRQMPGKGLEWMGMIYPGDSDTRYSPSFQGQVTISADKSISTAYLQWSSLKASDTAMYFCARQRTFYYDSSDYFDYWGQGTLVTVSS
VL: DIQMTQSPSSVSASVGDRVTITCRASQGISSWLAWYQQKPGKAPKLLIYAASSLQNGVPSRFSGSGSGTDFTLTISSLQPEDFATYFCQQADSFPRTFGQGTKLEIK
Take B4: the Binding Signal (fold over 6E7 parental antibody) with human TREM2 (human) [1] amounted to 0.84 fold; with human TREM2 (human) [2], 0.8 fold.

B5: 6E7 variant V45 (antibody, V domains shown)
VH: EVQLVQSGAEVKKPGESLKISCKGSGYSFTSYWIAWVRQMPGKGLEWMGIIYPGDSDTRYSPSFQGQVTISADKSISTAYLQWSSLKASDTAMYFCARQRTFYYDSSDYFDYWGQGTLVTVSS
VL: DIQMTQSPSSVSASVGDRVTITCRASQGISSFLAWYQQKPGKAPKLLIYAASSLQNGVPSRFSGSGSGTDFTLTISSLQPEDFATYFCQQADSFPRTFGQGTKLEIK
On to B5, for which the Binding Signal (fold over 6E7 parental antibody) with human TREM2 (human) [1] was 0.53 fold; with human TREM2 (human) [2], 0.43 fold.

B6: 6E7 variant V47 (antibody, V domains shown)
VH: EVQLVQSGAEVKKPGESLKISCKGSGYSFTSYWIAWVRQMPGKGLEWMGIIYPGDSDTRYSPSFQGQVTISADKSISTAYLQWSSLKASDTAMYFCARQRTFYYDSSDYFDYWGQGTLVTVSS
VL: DIQMTQSPSSVSASVGDRVTITCRASQGISSWLAWYQQKPGKAPKLLIYAASSLQNGVPSRFSGSGSGTDFTLTISSLQPEDFATYFCQQADSFPMTFGQGTKLEIK
On to B6, for which the results for the Binding Signal (fold over 6E7 parental antibody) with human TREM2 (human) [1] and with human TREM2 (human) [2] were 0.47 fold and 0.42 fold, respectively.

B7: 6E7 variant V44 (antibody, V domains shown)
VH: EVQLVQSGAEVKKPGESLKISCKGSGYSFTSYWIAWVRQMPGKGLEWMGIIYPSDSDTRYSPSFQGQVTISADKSISTAYLQWSSLKASDTAMYFCARQRTFYYDSSDYFDYWGQGTLVTVSS
VL: DIQMTQSPSSVSASVGDRVTITCRASQGISSWLAWYQQKPGKAPKLLIYAASSLQNGVPSRFSGSGSGTDFTLTISSLQPEDFATYFCQQADSFPRTFGQGTKLEIK
As for B7, the Binding Signal (fold over 6E7 parental antibody) with human TREM2 (human) [1] was found to be 0.52 fold; in the test with human TREM2 (human) [2] it was 0.65 fold.

B8: 6E7 variant V35 (antibody, V domains shown)
VH: EVQLVQSGAEVKKPGESLKISCKGSGYSFTSYWIAWVRQMPGKGLEWMGIIYPGDSDTRYSPSFQGQVTISADKSISTAYLQWSSLKASDTAMYFCARQRTFYYDSSDYFDYWGQGTLVTVSS
VL: DIQMTQSPSSVSASVGDRVTITCRASQGISSWLAWYQQKPGKAPKLLIYAASSLQNGVPSRFSGSGSGTDFTLTISSLQPEDFATYFCQQAYSFPRTFGQGTKLEIK
With B8, the values for the Binding Signal (fold over 6E7 parental antibody) with human TREM2 (human) [1] and with human TREM2 (human) [2] were 0.29 fold and 0.21 fold, respectively.

B9: 6E7 variant V68 (antibody, V domains shown)
VH: EVQLVQSGAEVKKPGESLKISCKGSGYSFTSYWIAWVRQMPGKGLEWMGIIYPGDSDTRYSPSFQGQVTISADKSISTAYLQWSSLKASDTAMYFCARQRTFRYDSSDYFDYWGQGTLVTVSS
VL: DIQMTQSPSSVSASVGDRVTITCRASQGISSWLAWYQQKPGKAPKLLIYAASSLQNGVPSRFSGSGSGTDFTLTISSLQPEDFATYFCQQADSFPRTFGQGTKLEIK
B9: the Binding Signal (fold over 6E7 parental antibody) with human TREM2 (human) [1] stood at 0.43 fold; with human TREM2 (human) [2] it was 0.44 fold.

B10: 6E7 variant V46 (antibody, V domains shown)
VH: EVQLVQSGAEVKKPGESLKISCKGSGYSFTSYWIAWVRQMPGKGLEWMGIIYPGDSDTRYSPSFQGQVTISADKSISTAYLQWSSLKASDTAMYFCARQRTFYYDSSDYFDYWGQGTLVTVSS
VL: DIQMTQSPSSVSASVGDRVTITCRASQGISSWLAWYQQKPGKAPKLLIYAASTLQNGVPSRFSGSGSGTDFTLTISSLQPEDFATYFCQQADSFPRTFGQGTKLEIK
For the molecule B10, the results for the Binding Signal (fold over 6E7 parental antibody) with human TREM2 (human) [1] and with human TREM2 (human) [2] were 0.96 fold and 0.83 fold, respectively.

B11: 6E7 variant V59 (antibody, V domains shown)
VH: EVQLVQSGAEVKKPGESLKISCKGSGYSFTSYWIAWVRQMPGKGLEWMGIIYPGDSDTRYSPSFQGQVTISADKSISTAYLQWSSLKASDTAMYFCARQRTFYYDSSDYFDYWGQGTLVTVSS
VL: DIQMTQSPSSVSASVGDRVTITCRASQGISSWLAWYQQKPGKAPKLLIYAASSLQNGVPSRFSGSGSGTDFTLTISSLQPEDFATYFCMQADSFPRTFGQGTKLEIK
Turning to B11, the Binding Signal (fold over 6E7 parental antibody) with human TREM2 (human) [1] was determined as 0.6 fold; with human TREM2 (human) [2], 0.19 fold.

B12: 6E7 variant V69 (antibody, V domains shown)
VH: EVQLVQSGAEVKKPGESLKISCKGSGYSFTSYWIAWVRQMPGKGLEWMGIIYPGDSDTRYSPSFQGQVTISADKSISTAYLQWSSLKASDTAMYFCARQRTFYYDSSDYFDYWGQGTLVTVSS
VL: DIQMTQSPSSVSASVGDRVTITCRASQGISSYLAWYQQKPGKAPKLLIYAASSLQNGVPSRFSGSGSGTDFTLTISSLQPEDFATYFCQQADSFPRTFGQGTKLEIK
Consider B12, for which the Binding Signal (fold over 6E7 parental antibody) in the test with human TREM2 (human) [1] stood at 0.4 fold; with human TREM2 (human) [2], 0.41 fold.

B13: 6E7 variant V56 (antibody, V domains shown)
VH: EVQLVQSGAEVKKPGESLKISCKGSGYSFTSYWIAWVRQMPGKGLEWMGIIYPGDSDTRYQPSFQGQVTISADKSISTAYLQWSSLKASDTAMYFCARQRTFYYDSSDYFDYWGQGTLVTVSS
VL: DIQMTQSPSSVSASVGDRVTITCRASQGISSWLAWYQQKPGKAPKLLIYAASSLQNGVPSRFSGSGSGTDFTLTISSLQPEDFATYFCQQADSFPRTFGQGTKLEIK
As to B13, the Binding Signal (fold over 6E7 parental antibody) with human TREM2 (human) [1] is 0.59 fold; with human TREM2 (human) [2], 0.23 fold.

B14: 6E7 variant V43 (antibody, V domains shown)
VH: EVQLVQSGAEVKKPGESLKISCKGSGYSFTSYWIAWVRQMPGKGLEWMGIIYPGDSGTRYSPSFQGQVTISADKSISTAYLQWSSLKASDTAMYFCARQRTFYYDSSDYFDYWGQGTLVTVSS
VL: DIQMTQSPSSVSASVGDRVTITCRASQGISSWLAWYQQKPGKAPKLLIYAASSLQNGVPSRFSGSGSGTDFTLTISSLQPEDFATYFCQQADSFPRTFGQGTKLEIK
B14: the results for the Binding Signal (fold over 6E7 parental antibody) in the test with human TREM2 (human) [1] and with human TREM2 (human) [2] were 0.33 fold and 0.2 fold, respectively.

B15: 6E7 variant V66 (antibody, V domains shown)
VH: EVQLVQSGAEVKKPGESLKISCKGSGTSFTSYWIAWVRQMPGKGLEWMGIIYPGDSDTRYSPSFQGQVTISADKSISTAYLQWSSLKASDTAMYFCARQRTFYYDSSDYFDYWGQGTLVTVSS
VL: DIQMTQSPSSVSASVGDRVTITCRASQGISSWLAWYQQKPGKAPKLLIYAASSLQNGVPSRFSGSGSGTDFTLTISSLQPEDFATYFCQQADSFPRTFGQGTKLEIK
For the molecule B15, the Binding Signal (fold over 6E7 parental antibody) with human TREM2 (human) [1] amounted to 0.74 fold; with human TREM2 (human) [2], 0.25 fold.

B16: 6E7 variant V58 (antibody, V domains shown)
VH: EVQLVQSGAEVKKPGESLKISCKGSGYSFTSYWIAWVRQMPGKGLEWMGIIYPGDSDTRYSPSFQGQVTISADKSISTAYLQWSSLKASDTAMYFCARQRTFYYDSSDYFDYWGQGTLVTVSS
VL: DIQMTQSPSSVSASVGDRVTITCRASQGISSWLAWYQQKPGKAPKLLIYKASSLQNGVPSRFSGSGSGTDFTLTISSLQPEDFATYFCQQADSFPRTFGQGTKLEIK
On to B16, for which the Binding Signal (fold over 6E7 parental antibody) with human TREM2 (human) [1] came out at 0.68 fold; in the test with human TREM2 (human) [2] it was 0.28 fold.

B17: 6E7 variant V54 (antibody, V domains shown)
VH: EVQLVQSGAEVKKPGESLKISCKGSGYSFTSQWIAWVRQMPGKGLEWMGIIYPGDSDTRYSPSFQGQVTISADKSISTAYLQWSSLKASDTAMYFCARQRTFYYDSSDYFDYWGQGTLVTVSS
VL: DIQMTQSPSSVSASVGDRVTITCRASQGISSWLAWYQQKPGKAPKLLIYAASSLQNGVPSRFSGSGSGTDFTLTISSLQPEDFATYFCQQADSFPRTFGQGTKLEIK
Regarding B17, the Binding Signal (fold over 6E7 parental antibody) in the test with human TREM2 (human) [1] worked out at 0.54 fold; in the test with human TREM2 (human) [2], 0.55 fold.

B18: 6E7 variant V57 (antibody, V domains shown)
VH: EVQLVQSGAEVKKPGESLKISCKGSGYSFTSYWIAWVRQMPGKGLEWMGIIYPGDSDTRYSPSFQGQVTISADKSISTAYLQWSSLKASDTAMYFCARQRTFYYDSSDYFDYWGQGTLVTVSS
VL: DIQMTQSPSSVSASVGDRVTITCAASQGISSWLAWYQQKPGKAPKLLIYAASSLQNGVPSRFSGSGSGTDFTLTISSLQPEDFATYFCQQADSFPRTFGQGTKLEIK
Take B18: the Binding Signal (fold over 6E7 parental antibody) was 0.85 fold with human TREM2 (human) [1] and 0.84 fold with human TREM2 (human) [2].
